Biological target: Phaeodactylum tricornutum diaminopimelate decarboxylase (PtLYSA), amino acids 39-476 (Phaeodactylum tricornutum)
Assay: SEC

stoichiometry N: 2
Substance: Phaeodactylum tricornutum diaminopimelate decarboxylase (PtLYSA), amino acids 39-476 (enzyme)
